Reference: patent publication US20250388640A1 (SYNTHEKINE, published 2025)

B1: human IL12 mutein, hIL-12p40 E81A, F82M with hIL-12p35-8X His (ligand)
chain 1: IWELKKDVYVVELDWYPDAPGEMVVLTCDTPEEDGITWTLDQSSEVLGSGKTLTIQVKAMGDAGQYTCHKGGEVLSHSLLLLHKKEDGIWSTDILKDQKEPKNKTFLRCEAKNYSGRFTCWWLTTISTDLTFSVKSSRGSSDPQGVTCGAATLSAERVRGDNKEYEYSVECQEDSACPAAEESLPIEVMVDAVHKLKYENYTSSFFIRDIIKPDPPKNLQLKPLKNSRQVEVSWEYPDTWSTPHSYFSLTFCVQVQGKSKREKKDRVFTDKTSATVICRKNASISVRAQDRYYSSSWSEWASVPCS
chain 2: RNLPVATPDPGMFPCLHHSQNLLRAVSNMLQKARQTLEFYPCTSEEIDHEDITKDKTSTVEACLPLELTKNESCLNSRETSFITNGSCLASRKTSFMMALCLSSIYEDLKMYQVEFKTMNAKLLMDPKRQIFLDQNMLAVIDELMQALNFNSETVPQKSSLEEPDFYKTKIKLCILLHAFRIRAVTIDRVMSYLNASGSHHHHHHHH
B2: human IL12 mutein, hIL-12p40 E81A, F82F with hIL-12p35-8X His (ligand)
chain 1: IWELKKDVYVVELDWYPDAPGEMVVLTCDTPEEDGITWTLDQSSEVLGSGKTLTIQVKAFGDAGQYTCHKGGEVLSHSLLLLHKKEDGIWSTDILKDQKEPKNKTFLRCEAKNYSGRFTCWWLTTISTDLTFSVKSSRGSSDPQGVTCGAATLSAERVRGDNKEYEYSVECQEDSACPAAEESLPIEVMVDAVHKLKYENYTSSFFIRDIIKPDPPKNLQLKPLKNSRQVEVSWEYPDTWSTPHSYFSLTFCVQVQGKSKREKKDRVFTDKTSATVICRKNASISVRAQDRYYSSSWSEWASVPCS
chain 2: RNLPVATPDPGMFPCLHHSQNLLRAVSNMLQKARQTLEFYPCTSEEIDHEDITKDKTSTVEACLPLELTKNESCLNSRETSFITNGSCLASRKTSFMMALCLSSIYEDLKMYQVEFKTMNAKLLMDPKRQIFLDQNMLAVIDELMQALNFNSETVPQKSSLEEPDFYKTKIKLCILLHAFRIRAVTIDRVMSYLNASGSHHHHHHHH
B3: human IL12 mutein, hIL-12p40 E81A, F82Q with hIL-12p35-8X His (ligand)
chain 1: IWELKKDVYVVELDWYPDAPGEMVVLTCDTPEEDGITWTLDQSSEVLGSGKTLTIQVKAQGDAGQYTCHKGGEVLSHSLLLLHKKEDGIWSTDILKDQKEPKNKTFLRCEAKNYSGRFTCWWLTTISTDLTFSVKSSRGSSDPQGVTCGAATLSAERVRGDNKEYEYSVECQEDSACPAAEESLPIEVMVDAVHKLKYENYTSSFFIRDIIKPDPPKNLQLKPLKNSRQVEVSWEYPDTWSTPHSYFSLTFCVQVQGKSKREKKDRVFTDKTSATVICRKNASISVRAQDRYYSSSWSEWASVPCS
chain 2: RNLPVATPDPGMFPCLHHSQNLLRAVSNMLQKARQTLEFYPCTSEEIDHEDITKDKTSTVEACLPLELTKNESCLNSRETSFITNGSCLASRKTSFMMALCLSSIYEDLKMYQVEFKTMNAKLLMDPKRQIFLDQNMLAVIDELMQALNFNSETVPQKSSLEEPDFYKTKIKLCILLHAFRIRAVTIDRVMSYLNASGSHHHHHHHH
B4: human IL12 mutein, hIL-12p40 E81A, F82G with hIL-12p35-8X His (ligand)
chain 1: IWELKKDVYVVELDWYPDAPGEMVVLTCDTPEEDGITWTLDQSSEVLGSGKTLTIQVKAGGDAGQYTCHKGGEVLSHSLLLLHKKEDGIWSTDILKDQKEPKNKTFLRCEAKNYSGRFTCWWLTTISTDLTFSVKSSRGSSDPQGVTCGAATLSAERVRGDNKEYEYSVECQEDSACPAAEESLPIEVMVDAVHKLKYENYTSSFFIRDIIKPDPPKNLQLKPLKNSRQVEVSWEYPDTWSTPHSYFSLTFCVQVQGKSKREKKDRVFTDKTSATVICRKNASISVRAQDRYYSSSWSEWASVPCS
chain 2: RNLPVATPDPGMFPCLHHSQNLLRAVSNMLQKARQTLEFYPCTSEEIDHEDITKDKTSTVEACLPLELTKNESCLNSRETSFITNGSCLASRKTSFMMALCLSSIYEDLKMYQVEFKTMNAKLLMDPKRQIFLDQNMLAVIDELMQALNFNSETVPQKSSLEEPDFYKTKIKLCILLHAFRIRAVTIDRVMSYLNASGSHHHHHHHH
B5: human IL12 mutein, hIL-12p40 E81A, F82H with hIL-12p35-8X His (ligand)
chain 1: IWELKKDVYVVELDWYPDAPGEMVVLTCDTPEEDGITWTLDQSSEVLGSGKTLTIQVKAHGDAGQYTCHKGGEVLSHSLLLLHKKEDGIWSTDILKDQKEPKNKTFLRCEAKNYSGRFTCWWLTTISTDLTFSVKSSRGSSDPQGVTCGAATLSAERVRGDNKEYEYSVECQEDSACPAAEESLPIEVMVDAVHKLKYENYTSSFFIRDIIKPDPPKNLQLKPLKNSRQVEVSWEYPDTWSTPHSYFSLTFCVQVQGKSKREKKDRVFTDKTSATVICRKNASISVRAQDRYYSSSWSEWASVPCS
chain 2: RNLPVATPDPGMFPCLHHSQNLLRAVSNMLQKARQTLEFYPCTSEEIDHEDITKDKTSTVEACLPLELTKNESCLNSRETSFITNGSCLASRKTSFMMALCLSSIYEDLKMYQVEFKTMNAKLLMDPKRQIFLDQNMLAVIDELMQALNFNSETVPQKSSLEEPDFYKTKIKLCILLHAFRIRAVTIDRVMSYLNASGSHHHHHHHH
B6: human IL12 mutein, hIL-12p40 E81A, F82I with hIL-12p35-8X His (ligand)
chain 1: IWELKKDVYVVELDWYPDAPGEMVVLTCDTPEEDGITWTLDQSSEVLGSGKTLTIQVKAIGDAGQYTCHKGGEVLSHSLLLLHKKEDGIWSTDILKDQKEPKNKTFLRCEAKNYSGRFTCWWLTTISTDLTFSVKSSRGSSDPQGVTCGAATLSAERVRGDNKEYEYSVECQEDSACPAAEESLPIEVMVDAVHKLKYENYTSSFFIRDIIKPDPPKNLQLKPLKNSRQVEVSWEYPDTWSTPHSYFSLTFCVQVQGKSKREKKDRVFTDKTSATVICRKNASISVRAQDRYYSSSWSEWASVPCS
chain 2: RNLPVATPDPGMFPCLHHSQNLLRAVSNMLQKARQTLEFYPCTSEEIDHEDITKDKTSTVEACLPLELTKNESCLNSRETSFITNGSCLASRKTSFMMALCLSSIYEDLKMYQVEFKTMNAKLLMDPKRQIFLDQNMLAVIDELMQALNFNSETVPQKSSLEEPDFYKTKIKLCILLHAFRIRAVTIDRVMSYLNASGSHHHHHHHH
B7: human IL12 mutein, hIL-12p40 E81A, F82L with hIL-12p35-8X His (ligand)
chain 1: IWELKKDVYVVELDWYPDAPGEMVVLTCDTPEEDGITWTLDQSSEVLGSGKTLTIQVKALGDAGQYTCHKGGEVLSHSLLLLHKKEDGIWSTDILKDQKEPKNKTFLRCEAKNYSGRFTCWWLTTISTDLTFSVKSSRGSSDPQGVTCGAATLSAERVRGDNKEYEYSVECQEDSACPAAEESLPIEVMVDAVHKLKYENYTSSFFIRDIIKPDPPKNLQLKPLKNSRQVEVSWEYPDTWSTPHSYFSLTFCVQVQGKSKREKKDRVFTDKTSATVICRKNASISVRAQDRYYSSSWSEWASVPCS
chain 2: RNLPVATPDPGMFPCLHHSQNLLRAVSNMLQKARQTLEFYPCTSEEIDHEDITKDKTSTVEACLPLELTKNESCLNSRETSFITNGSCLASRKTSFMMALCLSSIYEDLKMYQVEFKTMNAKLLMDPKRQIFLDQNMLAVIDELMQALNFNSETVPQKSSLEEPDFYKTKIKLCILLHAFRIRAVTIDRVMSYLNASGSHHHHHHHH
B8: human IL12 mutein, hIL-12p40 E81A, F82C with hIL-12p35-8X His (ligand)
chain 1: IWELKKDVYVVELDWYPDAPGEMVVLTCDTPEEDGITWTLDQSSEVLGSGKTLTIQVKACGDAGQYTCHKGGEVLSHSLLLLHKKEDGIWSTDILKDQKEPKNKTFLRCEAKNYSGRFTCWWLTTISTDLTFSVKSSRGSSDPQGVTCGAATLSAERVRGDNKEYEYSVECQEDSACPAAEESLPIEVMVDAVHKLKYENYTSSFFIRDIIKPDPPKNLQLKPLKNSRQVEVSWEYPDTWSTPHSYFSLTFCVQVQGKSKREKKDRVFTDKTSATVICRKNASISVRAQDRYYSSSWSEWASVPCS
chain 2: RNLPVATPDPGMFPCLHHSQNLLRAVSNMLQKARQTLEFYPCTSEEIDHEDITKDKTSTVEACLPLELTKNESCLNSRETSFITNGSCLASRKTSFMMALCLSSIYEDLKMYQVEFKTMNAKLLMDPKRQIFLDQNMLAVIDELMQALNFNSETVPQKSSLEEPDFYKTKIKLCILLHAFRIRAVTIDRVMSYLNASGSHHHHHHHH

Key:
[1] = target: T1, hIL-12 receptor signaling complex (hIL-12Rβ1 and hIL-12Rβ2) (human, UniProt P42701 24-662; Q99665 24-862); experiment: cell-based or functional assay
[2] = target: T1, hIL-12 receptor signaling complex …; experiment: cell-based or functional assay; remark: listed apart in the source

T1 sequence (Q99665 24-862, chain 2 of 2, other chains not shown): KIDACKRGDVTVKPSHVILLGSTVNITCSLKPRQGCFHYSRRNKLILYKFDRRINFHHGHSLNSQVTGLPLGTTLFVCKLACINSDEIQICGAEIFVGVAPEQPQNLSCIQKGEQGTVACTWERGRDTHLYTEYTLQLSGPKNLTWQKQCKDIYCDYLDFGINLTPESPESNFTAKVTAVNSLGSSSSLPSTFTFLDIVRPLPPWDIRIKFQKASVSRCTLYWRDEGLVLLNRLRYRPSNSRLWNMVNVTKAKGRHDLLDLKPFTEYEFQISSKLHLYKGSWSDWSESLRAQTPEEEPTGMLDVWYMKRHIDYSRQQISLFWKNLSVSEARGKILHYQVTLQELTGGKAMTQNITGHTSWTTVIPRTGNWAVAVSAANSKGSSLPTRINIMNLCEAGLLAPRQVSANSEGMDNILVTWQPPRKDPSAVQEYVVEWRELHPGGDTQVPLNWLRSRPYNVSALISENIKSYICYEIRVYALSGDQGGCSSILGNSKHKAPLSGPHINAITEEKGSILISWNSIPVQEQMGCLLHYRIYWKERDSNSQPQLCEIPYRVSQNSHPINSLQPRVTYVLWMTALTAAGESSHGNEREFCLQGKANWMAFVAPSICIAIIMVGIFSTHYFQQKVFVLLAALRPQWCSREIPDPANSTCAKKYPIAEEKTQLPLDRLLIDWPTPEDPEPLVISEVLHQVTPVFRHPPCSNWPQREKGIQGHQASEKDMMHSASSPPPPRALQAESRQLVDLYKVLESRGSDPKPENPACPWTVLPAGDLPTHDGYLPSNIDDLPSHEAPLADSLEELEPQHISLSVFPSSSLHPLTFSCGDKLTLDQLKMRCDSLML

Binder	pSTAT4 [%+] EC50, CD8+ T Cells [1]	pSTAT4 [%+] EC50, CD56hi NK Cells [1] [nM]	pSTAT4 [%+] Emax, CD8+ T Cells [1] [%+]	pSTAT4 [%+] Emax, CD56hi NK Cells [1] [%+]	pSTAT4 [gMFI] EC50, CD8+ T Cells [2] [nM]	pSTAT4 [gMFI] EC50, CD56hi NK Cells [2] [nM]	pSTAT4 [gMFI] Emax, CD8+ T Cells [2] [gMFI]	pSTAT4 [gMFI] Emax, CD56hi NK Cells [2] [gMFI]
B1	0.52 nM	0.74	82.2	88.1	2.64	4.26	109000	32200
B2	70 pM	0.13	83.3	93.5	0.2	0.63	107000	36600
B3	1.08 nM	2.05	78.5	85.1	4.92	9.87	91400	25900
B4	1 nM	1.7	80.1	88	4.92	13.5	98200	30300
B5	0.55 nM	0.97	79.6	89.7	4.04	8.57	108000	33500
B6	0.67 nM	0.9	79.2	86	5.72	10.4	106000	30500
B7	0.71 nM	1.08	80.2	89.1	3.12	7.21	100000	31100
B8	3.4 nM	5.08	79	85.2	12.7	30	87500	27000
